# Assay results: the nanobody polyreactivity screen of Harvey et al. (2022)
# Assay: yeast display, Sf9 membrane polyspecificity reagent, FACS + sequencing; frameworks hold sequencing errors
# Summary of the method: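 A synthetic nanobody library was expressed on Saccharomyces cerevisiae BJ5465 by galactose induction for 36–48 hours. The library was stained for 1 hour at 4 °C with 10% biotinylated, detergent-solubilized Sf9 membrane reagent and enriched with streptavidin microbeads before FACS. Low and high (top ~1%) gates were set on anti-HA fluorescence for expression and streptavidin fluorescence for reagent binding, and each polyreactivity label reflects the gate of origin.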
row,Sequence,polyreactivity (PSR sort gate)
1,QVQLVESGGALVQAGGSLRLSCAASGLIFTAYAMGWYRQAPGKERELVAAIDWRGGSTSYADSVKGRFTISRDTAKNTVYLQMNSLKPEDTAVYYCAADYYSKYVRFGYWGQGTQVTVSS,high polyreactivity
2,QVQLVESGGALVQAGGSLRLSCAASGRIFGGYAMGWYRQAPGTERELVAAISSGGRTYYADSVKGRFTISRDNAKNTVYLQMNSLKPEDTAVYYCNAYTRGFRLGYWGQGTQVTVSS,high polyreactivity
3,QVQLVESGGALVQAGGSLRLSCAASGRIFYKYVMGWYRQAPGKERELVATITSGGSTYYADSVKWRFTISRDNAKNTVYLQMNSLKPEDTAVYYCAARKYYSRAYDYWGQGTQVTVSS,high polyreactivity
4,QVQLVESGGALVQAGGSLRLSCAASGRTFNYNAMGWYRQAPGKERELVAAITSGASTNYADSVKGRFTISRDNAKNTVYLQMNSLKPEDTAVYYCNAEGYVYYLQEDYWGQGTQVNVSS,low polyreactivity
5,QVQLVESGGALVQAGGSLRLSCAASGRTFNYYAKGWSRQAPGKERELVAAITNGVSTKYADSVKGRFTISRDNAKNTVYLQMNSLKPEDTAVYYCAAQRLYGYRLYNYWGQGTQVTVSS,high polyreactivity
6,QVQLVESGGALVQAGGSLRLSCAASGRTFYSYAMGWYRQAPGKERELVAAINRGASTYYADSVKGRFTISRDNAKNTDYFQMKSLKPEDTAFYYCGARLYGRHYGYWGQGTQVTVSS,high polyreactivity
7,QVQLVESGGALVQAGGSLRLSCAASGSIFKKYAMGWYRPAPGKERELVAAITRGTYYADSVKGRFTISRVNAKNTVYLQMNSLKPEDTAVYYCNREYWGRGYYRVRGEYDYWGQGTQFTVSS,low polyreactivity
8,QVQLVESGGALVQAGGSLRLSCAASGSIFPANPMGWYRQAPGKEWEFVAAINWSTGTTYYADSVKGRFTISRDNGKNTVYLQMNSLKPEDTAVYYFNASDQAKYDYWGQGTQVTVSS,low polyreactivity
9,QVQLVESGGALVQAGGSLRLSCAASGSIFRWTAMGWYRQAPGKERVLVAAISKSGASTYYADSVKGRFTISRDNAKNTVYLQMNSLKPEDTAVYYCNRVYLGYFRYDYWGQGTQVTVSS,high polyreactivity
10,QVQLVESGGALVQAGGSLRLSCAASGSIFSEYAMGWYRQAPGKERELVAAISRSGGTTYYADSVKGRFTISRDNAKNTVYLQMNSLKPEDTAVYYCAARYFRGSYPMGYWGQGTQVTVSS,high polyreactivity
11,QVQLVESGGALVQAGGSLRLSCAASGSIFSSYAMGWYRQAPGKERELVAAISGSGDSTYYADSVKGRFTISRDNAKNTVYLQMNSLKPEDTAVYYCNAVYAFNGYDYWGQGTQVTVSS,low polyreactivity
12,QVQLVESGGALVQAGGSLRLSCAASGSTFSYNAMGWYSQAPGKERELVAAISSRGSSTYYADSVKGRFTISRDNAKNTVYFQINSLKPEDTAVYDCAARSYWGGLRYDYWGQGTQVTVSS,high polyreactivity
13,QVQLVESGGALVQAGGSLRLSCAASGSTVKYYAMGWYRQAPGKERELVATSSSGGSTNYADSVKRRFTISRDNAKNTVYLQRNSLKPEDTAVYYCAAYSTWRRIQFWGYNYWGQGTQVTVSS,high polyreactivity
14,QVQLVESGGALVQAGGSLRLSSAASVSIFTINAMGWYRQAPGKERELVAAISWSGAHTYYADSVKGRFTISRDNAKNTVYVQMNSLKPEDTAVYYCATGYNYLDRNTGYVHRFDYWGQGTQVTVSS,low polyreactivity
15,QVQLVESGGALVQARGSLRLSCAASGRIFGGNAMGWYRHAPGKERDLVADISYGGGSTNYADSVKGRFTISRDNAKNTVYLQMNSLKPADTAVYYCARDAWNTDGAYIGGDYDYWGQGTKVTVSS,low polyreactivity
16,QVQLVESGGALVQARGSLRLSCAASGRTFQIYAKGWDRQGHGKEMELVARITGVGSTNYADSVKGRFTISRDNAKNTVYLQMNSLKPEDTAVYYCAAYWILNNYEMYYWGQGTQVTVSS,low polyreactivity
17,QVQLVESGGCIVQAGGSLRLSCAASGITFLSNPMGWYSQAPGKERELVAAIDCRGDSTYYADSVKGRFTISRDNAKNTVYLQMNSLKPEDTAVYYCNADISGSGQWDGYDYWGQGTQVSVSS,low polyreactivity
18,QVQLVESGGCIVQAGGSLRLSCADSGSIFDWYAMVWYRQAPGKERELVAAINEGGGSTYYADSVKGRFTISRDNANNTVYLQMNSLKPEDHAVYYCAAGDYYLQDNYWGQGTQVTVSS,low polyreactivity
19,QVQLVESGGCLVKAGGSLRLSCAASGSTFSDNAIGWSRQAPGKERELVAAINYSDGSTNYADSVKGRFTISRDNAKNTVYLQINSQQPEDTAVYYCAVDIYFWSYGWWGPYDYWGQGTQVTVSS,low polyreactivity
20,QVQLVESGGCLVPAGGSLRLSCAASGSIFSYYAMGWYRQAPGKERELVAAITVRGGSTYYADSVKGRFTISRDNAKNTVYLQMNSLKPEDTAVYYCAADWLDESFSYGPYYYWGQGTQVTVSS,low polyreactivity
21,QVQLVESGGCLVQAGGILRLSCAASGSTFWIYAMGWYRQAPGKERELVAAITLRSGSTYYADSVKGRYTISRDNAKNTVFLQMNSLKPEDTAVYYCATDSWGVDRPNYNYWGQGTQVTVSS,low polyreactivity

row,Sequence,polyreactivity (PSR sort gate)
1,QVQLVESGGCLVQAGGRLRLSCAASGFIFGRYAMGWYRQAPGKERELVAAITWSGGSTYYADSVKGRFTISRDNAKNTVYLQMNSLKPQDTAVYYCAAYAYAPRDGYGWRKYRFYYWGQGTQVTVSS,high polyreactivity
2,QVQLVESGGCLVQAGGRLRLSCAASGSTFRSYTMVWYRQAPGKERELVADINGTGGSTYYADSVKGRFTISRDNAKNTVYLHMNSLKPEDTAVYYCAADGYFRTVTSGWALRMGYWGQGTQVTVSS,high polyreactivity
3,QVQLVESGGCLVQAGGSHRLSCAASGRTFGYNAMGWYSQAPRKERELVAVIRSGGSTYYADSVKGRYTISRDNAKNTVYFQMNSLKPEDTAVYYCAATGLYNVTSPYSYKYDYWGQGTQVTVSS,low polyreactivity
4,QVQLVESGGCLVQAGGSLRLIWDASGSIFKRYAMGWYRQAPGKERELVAAISYSGGSTYYADSVKGRFTISRDNAKNTVYLQMNSLKPEDTAVYYCAKRSTSRGYDYWGQGTQVTLSS,high polyreactivity
5,QVQLVESGGCLVQAGGSLRLSCAACGITFSGYDMGWYRQAPGKERELVADITISTGSTYYADSVKGRFTISRDNAKNTVYLQMNSLKPEDTAVYYCAASPFDYWYDYYGLYKEYYYWRQGTQVTVSS,low polyreactivity
6,QVQLVESGGCLVQAGGSLRLSCAASGFIFAYNAMGWYRQAPGKERELVAAISFSGGSTYYADSVKGRFTISRDTANNTVYLQMNSLKPEDTAVYYCAAVRYYWGQGTQVTVSS,high polyreactivity
7,QVQLVESGGCLVQAGGSLRLSCAASGFIFSYYTMGWYRQAPGKERALVAAISYSGGSTYYADSVKGRFTISRDNAKKTVYLQMNSLKPEDTAVYYCAAETYGYYVIRYDYWGQGTQVTVSS,high polyreactivity
8,QVQLVESGGCLVQAGGSLRLSCAASGFTFDIYAMGWYRQAPGKERELVATISRSGGTTYYADSVKGRFTISRDNAKNTVYLQMNCLKPEDTAVYYCAAAAYYYRYRYRMYYWGQGTQVTVSS,high polyreactivity
9,QVQLVESGGCLVQAGGSLRLSCAASGFTFYWYTMGWYRQAPGKERELVAAISRSGGDTDYADSVKGRFTISRDTAKNTVYLQMDSLQPEDTAVYYCNAGYFITHNYKYDYGGQGTQVTVSS,low polyreactivity
10,QVQLVESGGCLVQAGGSLRLSCAASGFTIWPNAMGWYRQAPGKERELVAAINWSGGATYYADSVKGRFTISRDNAKNSVYLHMNSLKPEDTAVYYCAAFSYDWYGGDEYWGKGTQVTVSS,low polyreactivity
11,QVQLVESGGCLVQAGGSLRLSCAASGIIFQGYVMGWYRQAPGKEREFVAAISRSGGTTFYADSVKGRFTISRDNAKNTVYLQMNSLKPVDTAVYSCNRARLGRPGYDYWGQGTQVTVTS,high polyreactivity
12,QVQLVESGGCLVQAGGSLRLSCAASGLIFRLYAMGWYRQAPGKERELVAAISVSGAITYYADSVKGRFTISRDKAKNTVYLQMNSLKPEDTAVYYCNAEAVFGRDGYVYWEVDYWGQGTQVTVSS,low polyreactivity
13,QVQLVESGGCLVQAGGSLRLSCAASGLTFAENAMGWYREAPGKERELVAAISASGGSTYYADSVKGRFTSSRDNAKNTVYLQMNSLKPEDTAVYYCATRVAFLWPRRDYDYWGQGTQVNVSS,low polyreactivity
14,QVQLVESGGCLVQAGGSLRLSCAASGRIFGSYAMGWYRHPPGKERELVAAISGSGGRTYYADSVKGRFTISRDNAKNTVYLQMNSLKPEDTAVYYCAADSQSFGYGYWGQGTQVTVSS,high polyreactivity
15,QVQLVESGGCLVQAGGSLRLSCAASGRIFGYYARGWYRQSAGKERELVAAITRNGGSTYYADSVKGRFTISRDNAKNTVYIQMISLKPVDTAVYYCYATKGGGRGYWCQGTQVTVSS,high polyreactivity
16,QVQLVESGGCLVQAGGSLRLSCAASGRIFPGYAMGWYRQAPGKEREFVAAITASGGTTYYADSVKGRFTISRDNAKNTVYLQMNSLKPEDTAVYYCAKYRYTVAGYNYWGQGTQVTVSS,high polyreactivity
17,QVQLVESGGCLVQAGGSLRLSCAASGRMFWSNARGWYRQARGYERELVAAMRNTGSTYYADSVKGRFTISRDNAKNTVYLQMNSLKPEETAVYYCATKPYPYYLYYYWGQGTQVTVSS,high polyreactivity
18,QVQLVESGGCLVQAGGSLRLSCAASGRTFFGYAMGWYRQAPGKERELVAALTRGGSTNYADSVKGRFTFSRDNAKNTVYLQMNSLKPEDTAVYYCNAERYRSRRYPYRYLYYYWGQGTQVTVSS,high polyreactivity
19,QVQLVESGGCLVQAGGSLRLSCAASGRTFFNYGMGWYRQAPGKEREFVARISFSGGSTYYADSVKGRFTISRDNAKNTVFLQMNSLIPEDTAVYYCNARVFPVAYRYGYWGQGTQVTVSS,high polyreactivity
20,QVQLVESGGCLVQAGGSLRLSCAASGRTFRYYAMGWYRQAPGKERELVAAITGGGGSTYYADSVKGRFTISRDNAKNTVYLQMNSLKPEDTAVYYCNKLRYKQWGAQYPMDYWGQGTQVTVSS,high polyreactivity
